In PMC9182133, “Cholesterol Dependent Activity of the Adenosine A2A Receptor Is Modulated via the Cholesterol Consensus Motif” (Molecules, 2022):

Columns and labels:
[1] = biological target: T1, wild-type human adenosine A2A receptor with rho-1d4 tag (pITy4-A2AR-1d4) (human, UniProt P29274 1-412); experiment: SPR; His6-Gαs (1 µM injected) captured on a high-capacity Ni-NTA chip; purified receptor injected at 296 (legend: 267), 445 or 667 nM for 3 min, dissociation 5 min; 20 °C, 25 µL/min; 50 mM Tris-HCl pH 8, 0.1% DDM, 0.1% CHAPS, 0.02% CHS; channel with denatured Gαs subtracted; 1-1 binding model, fits of three biological replicates averaged; settings: both partners purified
T1 construct: adenosine A2A receptor, human, wild type; the abstract calls it full length; also called WT A2AR; source: S. cerevisiae BJ5464 (pITy4, galactose induced), purified (Rho-1d4 resin, eluted with Rho-1d4 peptide) in DDM/CHAPS/CHS
T1 sequence (P29274 whole entry): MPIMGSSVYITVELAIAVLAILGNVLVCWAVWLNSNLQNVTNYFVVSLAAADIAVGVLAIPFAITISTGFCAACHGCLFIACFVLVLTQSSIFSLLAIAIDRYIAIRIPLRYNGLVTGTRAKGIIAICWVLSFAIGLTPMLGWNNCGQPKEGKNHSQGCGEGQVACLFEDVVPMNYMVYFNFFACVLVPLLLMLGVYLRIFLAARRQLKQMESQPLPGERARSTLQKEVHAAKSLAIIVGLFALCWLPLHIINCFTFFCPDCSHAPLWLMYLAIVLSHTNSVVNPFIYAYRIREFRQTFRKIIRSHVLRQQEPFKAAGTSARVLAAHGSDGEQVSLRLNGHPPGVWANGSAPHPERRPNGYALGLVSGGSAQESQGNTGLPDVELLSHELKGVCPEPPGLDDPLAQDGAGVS

[2] = biological target: T2, A2AR S47A variant with rho-1d4 tag (human, UniProt P29274 1-412, S47A); experiment: as above; settings: both partners purified
T2 construct: adenosine A2A receptor, human, with S47A (Ballesteros-Weinstein 2.45) in the cholesterol consensus motif; source: S. cerevisiae BJ5464 (pITy4, galactose induced), purified (Rho-1d4 resin, eluted with Rho-1d4 peptide) in DDM/CHAPS/CHS
T2 sequence (P29274 whole entry S47A): as the sequence (P29274 whole entry) above, with S47A counted along it

Kd [1]: 74 nM
koff [1]: 0.00066 s⁻¹
kon [1]: 12700 ± 649 M⁻¹ s⁻¹
Kd [2]: 146 nM
koff [2]: 0.00122 s⁻¹
kon [2]: 18700 ± 2900 M⁻¹ s⁻¹
B1: Gαs protein (pET15b-Gαs, His6 tagged) (natural protein, UniProt P63092 1-394, looked up)
chain: MGCLGNSKTEDQRNEEKAQREANKKIEKQLQKDKQVYRATHRLLLLGAGESGKSTIVKQMRILHVNGFNGEGGEEDPQAARSNSDGEKATKVQDIKNNLKEAIETIVAAMSNLVPPVELANPENQFRVDYILSVMNVPDFDFPPEFYEHAKALWEDEGVRACYERSNEYQLIDCAQYFLDKIDVIKQADYVPSDQDLLRCRVLTSGIFETKFQVDKVNFHMFDVGGQRDERRKWIQCFNDVTAIIFVVASSSYNMVIREDNQTNRLQEALNLFKSIWNNRWLRTISVILFLNKQDLLAEKVLAGKSKIEDYFPEFARYTTPEDATPEPGEDPRVTRAKYFIRDEFLRISTASGDGRHYCYPHFTCAVDTENIRRVFNDCRDIIQRMHLRQYELL
notes: G protein alpha-s subunit; also called G protein; source: E. coli Rosetta (DE3), purified (Ni-NTA resin)
